Consider three molecules from patent publication US20240368301A1 (HANGZHOU JIUYUAN GENE ENGINEERING, published 2024).

Assay [1] deals with T1, SIRPα V1-his (ACRO, Cat #SIA-H5225) (human, UniProt P78324 31-370).
T1 construct: not shown: His tag
Put plainly: ELISA.

Assay [2] addresses T2, SIRPβ-his (Novoprotein, Cat #CS93) (UniProt O00241 30-371, limits assumed). Put plainly: ELISA.
For assay [3], the target named is T3, SIRPα-V8 on stably transfected cells (Homo sapiens (Human), UniProt P78324 31-504).
T3 construct: also called CHOZN-SIRPα-V8; 293T-SIRPα-V8
Put plainly: FACS on cells carrying the target. The protocol: (§1) After washing, cells were stained with 0.2 μg goat anti-hIgG Fc-AF488 (Jackson ImmunoResearch, Cat #109-546-170) at 4° C. for 30 min. After washing again, cells were resuspended in 50 μL of DPBS/1% FBS and analyzed by FlowJo V10 and GraphPad Prism6 software.

Assay [4] has as its target T4, SIRPα-V1 on 293T-SIRPα-V1 cells (human, UniProt P78324 31-504).
T4 construct: Stably transfected cell line
Put plainly: FACS on cells carrying the target. The method, then: as §1

Assay [5] deals with T5, SIRPα-V2 on CHOZN-SIRPα-V2 cells (Homo sapiens (Human), UniProt P78324 31-504). Put plainly: FACS on cells carrying the target. The protocol:
as §1

In assay [6] the target is T1, SIRPα V1-his (ACRO, Cat #SIA-H5225). Put plainly: competition ELISA; coated SIRPα-V1-his, biotin-CD47 as competitor. The method, then: 100 μL of 2.5 μg/mL of recombinant SIRPα-V1-his and SIRPα-V2-his were coated overnight at 4° C. in Maxisorp ELISA 96-well plates. […] […] VSWFSP (SEQ ID NO: 40)] and incubated in the microtiter plate for 1 h at 37° C. After washing, each well was added with Streptavdin-HRP (Thermo, Cat #434323), substrate TMB (Beyotime, Cat #P0209-100 mL), and read by an enzyme marker.

In assay [7] the target is T4, SIRPα-V1 on 293T-SIRPα-V1 cells. Nature of the assay: competition FACS; 293T-SIRPα-V1 cells, FITC-labelled CD47 as competitor. The protocol: (§2) After washing, cells were analyzed by FlowJo V10 and GraphPad Prism6 software.
Assay [8] concerns the target T5, SIRPα-V2 on CHOZN-SIRPα-V2 cells. Nature of the assay: competition FACS; CHOZN-SIRPα-V2 cells, FITC-labelled CD47 as competitor. The method, then: as §2
The target in assay [9] is T1, SIRPα V1-his (ACRO, Cat #SIA-H5225). Put plainly: BLI (Octet RED 96), His-tagged antigen on Ni-NTA sensor, antibody in solution. The protocol: (§3) SIRPα V1-his (ACRO, Cat #SIA-H5225), SIRPα V2-his (made by transient transfection of HEK293F cells according to SEQ ID NO:38 sequence), SIRPβ-his (Novoprotein, Cat #CS93), SIRPγ-his (Sino Biological, Cat #11828-H08H) or cynomolgus macaques SIRPα-his (ACRO, Cat #SIA-C52H7) at 5 μg/mL was loaded to a Ni-NTA biosensor for 600 s. […] The data were fitted to calculate the affinity.

Assay [10] addresses T2, SIRPβ-his (Novoprotein, Cat #CS93). Described as above. The protocol: as §3
Assay [11] has as its target SIRPγ-his (Sino Biological, Cat #11828-H08H) (UniProt Q9P1W8 29-360). The assay is described as above. The protocol: as §3
Assay [12] deals with T6, cynomolgus macaques SIRPα-his (ACRO, Cat #SIA-C52H7) (cynomolgus macaque, UniProt A0A2K5VYQ9 31-369).
T6 construct: also called Monkey SIRPα; cynomolgus macaque SIRPα
T6 sequence: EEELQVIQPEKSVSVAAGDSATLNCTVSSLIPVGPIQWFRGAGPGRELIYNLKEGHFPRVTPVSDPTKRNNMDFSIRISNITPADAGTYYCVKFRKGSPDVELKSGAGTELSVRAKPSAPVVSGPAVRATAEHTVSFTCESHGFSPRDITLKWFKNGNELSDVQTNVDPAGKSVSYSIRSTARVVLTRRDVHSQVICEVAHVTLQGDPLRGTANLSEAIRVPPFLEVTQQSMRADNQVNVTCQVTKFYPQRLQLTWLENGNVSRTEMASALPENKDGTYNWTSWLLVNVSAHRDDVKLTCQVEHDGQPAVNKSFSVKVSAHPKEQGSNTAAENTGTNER
Described as above. The method, then:
as §3

In assay [13] the target is T4, SIRPα-V1 on 293T-SIRPα-V1 cells. Nature of the assay: FACS titration on 293T-SIRPα-V1 cells, goat anti-hIgG-AF488 (panel SIRPα-V1). The method, then: (§4) 2×10⁵ per well of stable transfer construct cell lines 293T-SIRPα-V1 (SEQ ID NO: 2), CHOZN-SIRPα-V2 (SEQ ID NO: 38), and CHOZN-SIRPα-V8 (SEQ ID NO: 39) in logarithmic phase were dispended in 96-well U-shaped culture plates, […] After washing, the cells were incubated with 0.2 μg of goat anti-hIgG-AF488 for 30 min at 4° C., then resuspended in 50 μL of DPBS/1% FBS and analyzed by flow cytometry with FlowJo V10 and GraphPad Prism6 software.

The target of assay [14] is T3, SIRPα-V8 on stably transfected cells. Put plainly: FACS titration on CHOZN-SIRPα-V8 cells, goat anti-hIgG-AF488 (panel SIRPα-V8). The protocol: as §4
The target of assay [15] is T5, SIRPα-V2 on CHOZN-SIRPα-V2 cells. Nature of the assay: FACS titration on CHOZN-SIRPα-V2 cells, goat anti-hIgG Fc-AF488 (panel SIRPα-V2). The protocol: as §1
Assay [16] addresses T1, SIRPα V1-his (ACRO, Cat #SIA-H5225). Nature of the assay: SPR (Biacore), antibody captured by anti-Fc on CM5, 50 nM SIRPα V1-his injected, 1:1 model. The method, then:
(§5) Using the Biacore analysis system, activators were prepared by mixing 400 mM EDC and 100 mM NHS and activated with a CM5 sensor chip at a flow rate of 10 μL/min for 420 s. Anti-Fc antibody at 30 μg/mL dissolved in 10 mM NaAc (pH 4.5) was injected into the channel at a flow rate of 10 μL/min and then closed with 1 M ethanolamine-HCl at a flow rate of 10 μL/min for 420 s. […] All experimental data were fitted using a 1:1 binding model.

For assay [17] the target is unchanged. Nature of the assay: SPR (Biacore), antibody captured by anti-Fc on CM5, 50 nM SIRPα V1-his injected. The method, then: as §5
Assay [18] concerns the target T7, SIRPα V2-his (made by transient transfection of HEK293F cells according to SEQ ID NO:38) (Homo sapiens (Human), UniProt P78324 31-373).
T7 construct: it is the full-length precursor, starting with MEPAG... and including the transmembrane and cytoplasmic parts; not shown: His tag
Nature of the assay: BLI (Octet RED 96), His-tagged antigen on Ni-NTA sensor, antibody in solution. The protocol: as §3

Assay [19] addresses T1, SIRPα V1-his (ACRO, Cat #SIA-H5225). Nature of the assay: competition ELISA: coated SIRPα-V1-his, antibody titrated against biotin-CD47, streptavidin-HRP (panel SIRPα-V1-CD47).
For assay [20], the target named is T7, SIRPα V2-his (made by transient …). Nature of the assay: competition ELISA: coated SIRPα-V2-his, antibody titrated against biotin-CD47, streptavidin-HRP (panel SIRPα-V2-CD47).

Sequence of SIRPγ-his (Sino Biological, Cat #11828-H08H) (Q9P1W8 29-360 limits assumed): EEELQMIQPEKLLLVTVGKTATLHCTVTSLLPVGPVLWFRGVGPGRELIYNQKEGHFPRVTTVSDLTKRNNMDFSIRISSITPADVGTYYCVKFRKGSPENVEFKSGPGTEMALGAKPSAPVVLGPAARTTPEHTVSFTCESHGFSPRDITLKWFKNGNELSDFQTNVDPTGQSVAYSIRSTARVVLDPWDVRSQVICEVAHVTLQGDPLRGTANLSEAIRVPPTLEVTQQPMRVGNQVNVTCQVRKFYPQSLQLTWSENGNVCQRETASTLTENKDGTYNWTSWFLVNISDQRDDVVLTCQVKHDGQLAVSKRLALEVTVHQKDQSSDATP
T7 sequence (P78324 other isoform, or with tags, fused parts or gaps limits assumed): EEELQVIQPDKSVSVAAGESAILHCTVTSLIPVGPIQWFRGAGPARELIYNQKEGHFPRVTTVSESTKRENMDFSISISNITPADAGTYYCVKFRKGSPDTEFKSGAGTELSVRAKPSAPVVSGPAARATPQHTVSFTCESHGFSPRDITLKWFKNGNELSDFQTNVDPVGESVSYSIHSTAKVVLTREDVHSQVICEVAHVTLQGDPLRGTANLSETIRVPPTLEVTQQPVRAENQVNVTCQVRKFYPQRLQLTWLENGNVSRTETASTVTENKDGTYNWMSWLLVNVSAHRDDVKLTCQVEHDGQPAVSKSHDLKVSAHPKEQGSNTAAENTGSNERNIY
T4 sequence (P78324 31-504): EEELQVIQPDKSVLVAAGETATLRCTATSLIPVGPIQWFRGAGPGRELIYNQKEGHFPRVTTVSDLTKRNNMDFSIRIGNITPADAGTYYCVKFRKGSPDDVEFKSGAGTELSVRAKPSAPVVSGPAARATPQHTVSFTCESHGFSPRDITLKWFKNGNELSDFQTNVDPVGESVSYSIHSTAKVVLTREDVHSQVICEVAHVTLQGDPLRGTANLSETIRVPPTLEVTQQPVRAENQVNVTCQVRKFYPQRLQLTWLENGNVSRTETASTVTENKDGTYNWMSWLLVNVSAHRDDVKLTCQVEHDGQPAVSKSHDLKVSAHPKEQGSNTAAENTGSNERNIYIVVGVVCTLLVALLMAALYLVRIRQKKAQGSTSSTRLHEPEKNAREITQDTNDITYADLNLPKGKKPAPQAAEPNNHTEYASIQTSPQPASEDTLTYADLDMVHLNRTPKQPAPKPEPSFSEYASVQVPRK
T5 sequence (P78324 other isoform, or with tags, fused parts or gaps limits assumed): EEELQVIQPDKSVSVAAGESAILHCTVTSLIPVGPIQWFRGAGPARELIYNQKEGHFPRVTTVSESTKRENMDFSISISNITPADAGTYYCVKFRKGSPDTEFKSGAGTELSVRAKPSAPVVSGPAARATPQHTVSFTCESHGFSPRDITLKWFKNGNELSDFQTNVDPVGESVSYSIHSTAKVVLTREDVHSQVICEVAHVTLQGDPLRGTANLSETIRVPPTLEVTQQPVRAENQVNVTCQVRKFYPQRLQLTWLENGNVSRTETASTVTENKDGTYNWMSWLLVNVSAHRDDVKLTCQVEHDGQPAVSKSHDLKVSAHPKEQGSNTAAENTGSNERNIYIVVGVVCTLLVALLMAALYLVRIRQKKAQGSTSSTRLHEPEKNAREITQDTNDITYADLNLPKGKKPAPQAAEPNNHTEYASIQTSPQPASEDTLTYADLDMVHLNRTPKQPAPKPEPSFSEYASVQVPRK
T1 sequence (P78324 31-370 limits assumed): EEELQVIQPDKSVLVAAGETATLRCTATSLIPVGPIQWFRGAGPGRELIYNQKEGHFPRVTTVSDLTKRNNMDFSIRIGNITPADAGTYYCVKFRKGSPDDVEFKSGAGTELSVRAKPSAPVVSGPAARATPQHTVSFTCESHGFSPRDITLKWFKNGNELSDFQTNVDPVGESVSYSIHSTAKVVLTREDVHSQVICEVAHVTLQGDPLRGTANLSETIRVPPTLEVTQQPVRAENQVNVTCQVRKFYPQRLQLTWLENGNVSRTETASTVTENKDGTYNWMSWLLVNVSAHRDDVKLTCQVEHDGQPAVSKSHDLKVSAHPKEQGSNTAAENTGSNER
T3 sequence (P78324 other isoform, or with tags, fused parts or gaps limits assumed): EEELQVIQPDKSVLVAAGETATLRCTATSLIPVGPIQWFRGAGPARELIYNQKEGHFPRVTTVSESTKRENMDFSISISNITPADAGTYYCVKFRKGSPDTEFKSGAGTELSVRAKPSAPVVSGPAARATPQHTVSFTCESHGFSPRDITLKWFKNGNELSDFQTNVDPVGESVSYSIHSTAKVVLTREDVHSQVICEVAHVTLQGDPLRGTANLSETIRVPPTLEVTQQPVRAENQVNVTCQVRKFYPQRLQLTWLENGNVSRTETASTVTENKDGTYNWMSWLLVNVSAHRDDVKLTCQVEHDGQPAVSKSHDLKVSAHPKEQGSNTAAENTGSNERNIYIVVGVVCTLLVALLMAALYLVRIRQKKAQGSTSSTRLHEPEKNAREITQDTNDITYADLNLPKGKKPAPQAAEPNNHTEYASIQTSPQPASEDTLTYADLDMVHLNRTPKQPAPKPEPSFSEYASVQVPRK
T2 sequence (O00241 30-371 limits assumed): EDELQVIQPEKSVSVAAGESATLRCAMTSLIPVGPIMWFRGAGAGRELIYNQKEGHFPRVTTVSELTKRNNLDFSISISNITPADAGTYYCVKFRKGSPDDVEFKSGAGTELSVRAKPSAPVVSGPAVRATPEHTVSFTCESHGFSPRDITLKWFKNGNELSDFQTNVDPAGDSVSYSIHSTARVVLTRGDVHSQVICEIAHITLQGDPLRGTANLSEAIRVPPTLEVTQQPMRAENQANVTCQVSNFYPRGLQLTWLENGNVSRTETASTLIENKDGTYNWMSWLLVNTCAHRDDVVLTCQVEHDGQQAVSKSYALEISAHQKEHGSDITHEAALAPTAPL

B1: AD4-12 (antibody, V domains shown)
VH: EVQLEESGPGLVAPSQSLSITCTVSGFSLTGYGVNWVRQPPGKGLEWLGIIWGDGSTDYNSALKSRLSISKDNSKSQVFLKMNSLQSDDTARYYCARAGKMDYWGQGTSVTVSS
VL: DIVLTQSPASLAVSLGQGATISCRASESVDSYGNSFMHWYQQKPGQPPKPLIYLASNLESGVPARFSGSGSRTDFTLTIDPVEADDAATYYCQQNNEYPWTFGGGTKLEIK
notes: Mouse variable domains joined to human kappa and human IgG1 constant regions (wild type = AD4-12-G1, L234A/L235A = AD4-12-G1lala); also called AD4-12-G1; AD4-12-G1lala
Consider B1, for which the EC50 in [1] was determined as 0.0488 nM; in assay [2] it was 0.271 nM; in [3], 0.407 nM; in assay [4], 0.615 nM; in assay [5], 0.245 nM. Further, the IC50 in [6] worked out at 5.26 nM; in [7] it was 1.74 nM; in [8], 6.42 nM. The Kd came out at 0.0111 nM in assay [9]; 0.0353 nM in assay [10]; 1.03 nM in assay [11]; 0.43 nM in [12]; 1.47 nM in assay [16]. The koff in [9] came out at 1.16e-05 s⁻¹; in assay [10], 3.21e-05 s⁻¹; in [11], 0.000731 s⁻¹; in assay [12] it was 0.000498 s⁻¹; in assay [16], 0.00113 s⁻¹. Moreover, the kon amounted to 1.05e+06 M⁻¹ s⁻¹ in assay [9]; 909000 M⁻¹ s⁻¹ in [10]; 709000 M⁻¹ s⁻¹ in assay [11]; 1.16e+06 M⁻¹ s⁻¹ in [12]; 770000 M⁻¹ s⁻¹ in [16]. The “EC50 (read off the curve)” value was around 5 nM in assay [13], around 2 nM in assay [14] and around 4 nM in [15].

B2: Z2 (antibody, IgG1, V domains shown)
VH: QVQLQESGPGLVKPSQTLSLTCTVSGFSLTGYGVNWIRQPPGKGLEWIGIIWGDGSTDYNSALKSRVTISVDTSKNQVFLKLSSVTAADTAVYYCARAGKMDYWGQGTTVTVSS
VL: DIVLTQSPASLAVSPGQRATITCRASESVDSYGNSFMHWYQQKPGQPPKLLIYLASNLESGVPARFSGSGSRTDFTLTINPVEANDAANYYCQQNNEYPWTFGGGTKVEIK
notes: also called humanized variant Z2
Take B2: the binding result in assay [17] is “binds”.

B3: 18D5 (antibody, V domains shown)
VH: QVQLQQPGAELVRPGSSVKLSCKASGYTFTSYWVHWVKQRPIQGLEWIGNIDPSDSDTHYNQKFKDKASLTVDKSSSTAYMQLSSLTFEDSAVYYCVRGGTGTMAWFAYWGQGTLVTVSA
VL: DVVMTQTPLSLPVSLGDQASISCRSSQSLVHSYGNTYLYWYLQKPGQSPKLLIYRVSNRFSGVPDRFSGSGSGTDFTLKISRVEAEDLGVYFCFQGTHVPYTFGSGTKLEIK
In the case of B3, the EC50 in assay [1] came out at 0.13 nM; in [2] it was 0.196 nM; in assay [3], 8.76 nM; in assay [4], 1.08 nM; in [5], 3.65 nM. Further, the dissociation constant (Kd) in assay [9] was determined as 0.115 nM; in assay [18], 1.07 nM; in assay [10] it was 0.0137 nM; in assay [11] it was 1.23 nM. Further, the koff turned out to be 7.76e-05 s⁻¹ in assay [9], 0.000601 s⁻¹ in assay [18], 2.36e-05 s⁻¹ in assay [10] and 0.000896 s⁻¹ in assay [11]. The kon in assay [9] came to 674000 M⁻¹ s⁻¹; in assay [18], 561000 M⁻¹ s⁻¹; in assay [10], 1.72e+06 M⁻¹ s⁻¹; in [11] it was 728000 M⁻¹ s⁻¹. The “IC50 (read off the curve)” value was around 20 nM in assay [19] and around 30 nM in assay [20].
